Results on two substances are retold here after paper PMC4125116.

The target of assay [1] is BldM fused to the T18 or the T25 fragment of adenylate cyclase (BACTH) (Streptomyces venezuelae). The assay is described as follows: two-hybrid; bacterial two-hybrid (BACTH), T18 (pUT18) and T25 (pKT25) fusions in E. coli BTH101; transformants grown at 30°C for two days; β-galactosidase assays of four independent clones.
The target in assay [2] is WhiI fused to the T18 or the T25 fragment of adenylate cyclase (BACTH) (Streptomyces venezuelae). The description is as above.

“WhiI fused to the T18 or the T25 fragment of adenylate cyclase (BACTH) (natural protein)” registered a β-galactosidase activity (Miller units) in assay [1] of 3000 Miller units.

As to “BldM fused to the T18 or the T25 fragment of adenylate cyclase (BACTH) (natural protein)”, the β-galactosidase activity (Miller units) in assay [1] was 750 Miller units; in assay [2] it was 3000 Miller units.
